In the assay the target is NISTmAb Primary Sample (PS 8670). As to the kind of experiment: FPLC; mAb sample after buffer exchange; sample buffer 15 mM acetic acid, 40 mM NaCl, pH 5 (ionic strength 50 mM); column and running conditions not told.

The substance “NISTmAb Primary Sample (PS 8670) (antibody)” came in with a percent dimers of under 1%.

For the origin of these results see paper PMC12518842.
